# Laboratory results: the Human Domainome abundance scans (Beltran et al. 2025)
# ± gives the uncertainty stated by the source.
# B1: Protein S100-G, residues 1 to 79; numbered along this chain, P02633 (parent)
# chain: MSAKKSPEELKGIFEKYAAKEGDPNQLSKEELKLLLQTEFPSLLKGPSTLDELFEELDKNGDGEVSFEEFQVLVKKISQ
# Variants of: B1
# Experiment: abundance fitness (aPCA) (normalised: wild type 0, dead -1); higher = more abundant; growth selection in yeast, the domain comes from the species named
# Settings: Bos taurus
row,Variant,abundance fitness
1,L36A,-0.1 ± 0.07
2,L36C,-0.099 ± 0.093
3,L34A,0.066 ± 0.075
4,L34Y,-0.015 ± 0.079
5,L34C,-0.045 ± 0.08
6,L34E,0.054 ± 0.097
7,L34I,0.018 ± 0.09
8,L34K,0.027 ± 0.085
9,L34R,0.05 ± 0.07
10,L34V,-0.031 ± 0.072
11,L34G,0.035 ± 0.08
12,L34D,0.113 ± 0.093
13,L34F,-0.036 ± 0.075
14,L34N,0.041 ± 0.085
15,L34T,0.023 ± 0.074
16,L34S,-0.04 ± 0.064
17,L34H,0.05 ± 0.078
18,K33H,-0.041 ± 0.088
19,K33W,-0.479 ± 0.083
20,K33T,0.059 ± 0.074
21,K33C,-0.072 ± 0.084
22,K33F,-0.022 ± 0.091
23,K33G,0.033 ± 0.08
24,K33E,-0.032 ± 0.093

row,Variant,abundance fitness
1,K33Y,-0.121 ± 0.085
2,K33N,-0.016 ± 0.085
3,K33I,-0.051 ± 0.086
4,K33V,-0.016 ± 0.072
5,K33A,0.043 ± 0.076
6,K33R,-0.005 ± 0.07
7,E31D,0.054 ± 0.11
8,E31C,-0.153 ± 0.097
9,E31N,0.023 ± 0.092
10,E31V,-0.033 ± 0.079
11,E31R,-0.064 ± 0.078
12,E31L,-0.045 ± 0.074
13,E31F,-0.123 ± 0.091
14,E31P,-0.022 ± 0.095
15,E31H,-0.016 ± 0.086
16,E31K,-0.006 ± 0.1
17,E31A,-0.108 ± 0.09
18,E31Y,-0.07 ± 0.091
19,E31M,-0.007 ± 0.1
20,E31S,0.002 ± 0.074
21,E31T,-0.175 ± 0.086
22,E31G,0.015 ± 0.084
23,E31I,0.032 ± 0.089
24,E31W,-0.171 ± 0.11

row,Variant,abundance fitness
1,E30F,-0.006 ± 0.077
2,E30D,0.073 ± 0.084
3,E30N,0.061 ± 0.085
4,E30L,-0.053 ± 0.062
5,E30T,-0.001 ± 0.068
6,E30C,-0.018 ± 0.086
7,E30W,-0.074 ± 0.086
8,E30V,0.071 ± 0.07
9,E30Q,0.04 ± 0.078
10,E30R,0.03 ± 0.066
11,E30I,-0.032 ± 0.085
12,E30S,0.048 ± 0.062
13,E30K,-0.023 ± 0.084
14,E30P,0.026 ± 0.074
15,E30H,-0.026 ± 0.077
16,E30A,-0.016 ± 0.074
17,E30Y,-0.042 ± 0.083
18,E30M,0.022 ± 0.08
19,E30G,-0.057 ± 0.082
20,L27M,-0.054 ± 0.085
21,L27H,-0.751 ± 0.092
22,L27A,-0.137 ± 0.077
23,L27E,-1.04 ± 0.094
24,L27W,-0.936 ± 0.088

row,Variant,abundance fitness
1,L27G,-0.786 ± 0.076
2,L27I,0.105 ± 0.1
3,L27R,-0.673 ± 0.066
4,L27S,-0.611 ± 0.068
5,L27F,-0.48 ± 0.093
6,L27P,-0.846 ± 0.082
7,L27K,-0.844 ± 0.088
8,L27C,0.006 ± 0.091
9,L27N,-0.681 ± 0.099
10,L27D,-0.855 ± 0.1
11,L27Q,-0.839 ± 0.08
12,L27T,-0.335 ± 0.078
13,L27Y,-0.764 ± 0.092
14,L27V,-0.02 ± 0.073
15,K29I,0.056 ± 0.091
16,K29H,0.06 ± 0.086
17,K29R,0.027 ± 0.065
18,K29F,0.017 ± 0.087
19,K29D,-0.007 ± 0.096
20,K29N,0.07 ± 0.091
21,K29L,-0.008 ± 0.064
22,K29T,0.007 ± 0.079
23,K29Y,0.12 ± 0.086
24,K29A,0.025 ± 0.071

row,Variant,abundance fitness
1,K29C,0.002 ± 0.086
2,K29G,-0.078 ± 0.073
3,K29Q,-0.099 ± 0.085
4,K29V,0.038 ± 0.07
5,K29E,-0.14 ± 0.083
6,K29M,-0.057 ± 0.077
7,K29S,-0.006 ± 0.068
8,L32A,0.027 ± 0.073
9,L32S,-0.138 ± 0.064
10,L32H,-0.951 ± 0.096
11,L32K,-1.03 ± 0.098
12,L32W,-0.209 ± 0.081
13,L32F,-0.048 ± 0.083
14,L32I,0.067 ± 0.093
15,L32V,-0.067 ± 0.067
16,L32R,-0.874 ± 0.067
17,L32Q,-0.616 ± 0.083
18,L32Y,-0.205 ± 0.087
19,L32P,-2.71 ± 0.14
20,L32T,-0.054 ± 0.075
21,L32D,-3.08 ± 0.22
22,L32N,-0.673 ± 0.093
23,L32E,-1.72 ± 0.11
24,L32C,-0.097 ± 0.087

row,Variant,abundance fitness
1,S28L,-0.208 ± 0.068
2,S28M,-0.218 ± 0.088
3,S28R,-0.065 ± 0.066
4,S28Y,-0.277 ± 0.089
5,S28H,-0.041 ± 0.081
6,S28K,-0.048 ± 0.091
7,S28V,-0.156 ± 0.073
8,S28D,0.037 ± 0.093
9,S28P,-0.033 ± 0.078
10,S28F,-0.425 ± 0.089
11,S28N,-0.049 ± 0.084
12,S28T,-0.083 ± 0.072
13,S28C,-0.07 ± 0.088
14,S28W,-0.465 ± 0.091
15,S28E,-0.05 ± 0.1
16,S28I,-0.282 ± 0.089
17,S28Q,-0.008 ± 0.085
18,S28A,0 ± 0.071
19,L35C,-0.064 ± 0.08
20,L35N,-1.04 ± 0.081
21,L35P,-2.06 ± 0.096
22,L35H,-0.724 ± 0.074
23,L35W,-0.313 ± 0.084
24,L35A,0.02 ± 0.08

row,Variant,abundance fitness
1,L35S,-0.206 ± 0.06
2,L35F,-0.164 ± 0.069
3,L35Q,-0.684 ± 0.091
4,L35M,0.031 ± 0.076
5,L35I,0.016 ± 0.075
6,L35K,-0.829 ± 0.092
7,L35D,-1.44 ± 0.11
8,L35G,-0.51 ± 0.085
9,L35E,-1.11 ± 0.11
10,L35T,-0.174 ± 0.066
11,Q26I,0.003 ± 0.087
12,Q26R,0.054 ± 0.068
13,Q26W,0.037 ± 0.089
14,Q26G,-0.031 ± 0.07
15,Q26S,0.042 ± 0.064
16,Q26M,0.002 ± 0.083
17,Q26H,-0.075 ± 0.089
18,Q26K,-0.05 ± 0.079
19,Q26N,-0.048 ± 0.083
20,Q26V,-0.081 ± 0.071
21,Q26P,-0.523 ± 0.078
22,Q26Y,0.021 ± 0.082
23,Q26L,0.006 ± 0.064
